What was measured:
[1] = target: Myc-GST融合蛋白(Myc标签与谷胱甘肽融合的蛋白); test: indirect ELISA, Myc-GST coated at 5 μg/mL, HRP anti-His secondary antibody; heat test at 80℃ for 30 min
[2] = target: Myc-GST融合蛋白(Myc标签与谷胱甘肽融合的蛋白); test: indirect ELISA, Myc-GST coated at 5 μg/mL, HRP anti-His secondary antibody; heat test at 70℃ for 30 min
[3] = target: Myc-GST融合蛋白(Myc标签与谷胱甘肽融合的蛋白); test: indirect ELISA, Myc-GST coated at 5 μg/mL, HRP anti-His secondary antibody; heat test at 90℃ for 30 min

B1: 抗c-Myc标签单域重链抗体 (VHH, not shown: small tags and cut ends)
VHH: QLQLVESGGGLVQPGESLTLTCVASGGTLENWDIAWFRQAPGKEREGVAYFSSDGIRNYGDSMRGRFKISRDNAKNTAWLQMNRLSVEDTSTYYCAAKERVGRAWRNDGLYRYWGQGTQVTVSS
**Q.** For B1, which OD450 [1] is on record?
**A.** The OD450 was 1.4 OD450.

**Q.** What about the OD450 [2] of the same binder?
**A.** The OD450 was 1.5 OD450.

**Q.** What about the OD450 [3] of the same binder?
**A.** The OD450 was 1.2 OD450.

— patent publication CN106902750A
